{"source": "patent US20210324050A1", "about": "(published 2021)", "key": {"GII.17 Shell": {"biological_target": "GII.17 Shell (norovirus GII.17)", "assay": "ELISA"}, "GII.6 Shell": {"biological_target": "GII.6 Shell (norovirus GII.6)", "assay": "ELISA"}, "GII.17 Protruding": {"biological_target": "GII.17 Protruding (norovirus GII.17)", "assay": "ELISA"}, "GII.6 Protruding": {"biological_target": "GII.6 Protruding (norovirus GII.6)", "assay": "ELISA"}, "GI.3 Shell": {"biological_target": "GI.3 Shell (norovirus GI.3)", "assay": "ELISA"}, "GI.3 Protruding": {"biological_target": "GI.3 Protruding (norovirus GI.3)", "assay": "ELISA"}, "GII.17": {"biological_target": "GII.17 (norovirus GII.17)", "assay": "ELISA"}, "GII.3": {"biological_target": "GII.3 (norovirus GII.3)", "assay": "ELISA"}, "GII.13": {"biological_target": "GII.13 (norovirus GII.13)", "assay": "ELISA"}, "GI.3": {"biological_target": "GI.3 (norovirus GI.3)", "assay": "ELISA"}, "GII.6 (AF414410) VLPs [1]": {"biological_target": "GII.6 (AF414410) VLPs (norovirus GII.6)", "assay": "ELISA"}, "GI.2 (AF435807) VLPs": {"biological_target": "GI.2 (AF435807) VLPs (norovirus GI.2)", "assay": "ELISA"}, "[2]": {"biological_target": "T1, GII.4 Sydney 2012 shell (S) domain (UniProt P54635 1-221)", "T1 chain": "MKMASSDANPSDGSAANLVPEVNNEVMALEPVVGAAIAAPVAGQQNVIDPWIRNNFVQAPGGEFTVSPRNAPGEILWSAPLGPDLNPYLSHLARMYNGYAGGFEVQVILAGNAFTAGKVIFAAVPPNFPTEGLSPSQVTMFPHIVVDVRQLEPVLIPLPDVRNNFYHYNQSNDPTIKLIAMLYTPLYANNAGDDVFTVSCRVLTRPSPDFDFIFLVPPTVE", "assay": "ELISA"}, "GII.6 (AF414410) VLPs [3]": {"biological_target": "GII.6 (AF414410) VLPs (norovirus GII.6)", "assay": "VLP-PGM blockade"}, "GI.1 (M87661) VLPs": {"biological_target": "T2, GI.1 (M87661) VLPs (UniProt Q83884 1-530; Q83885 1-212)", "T2 VP1": "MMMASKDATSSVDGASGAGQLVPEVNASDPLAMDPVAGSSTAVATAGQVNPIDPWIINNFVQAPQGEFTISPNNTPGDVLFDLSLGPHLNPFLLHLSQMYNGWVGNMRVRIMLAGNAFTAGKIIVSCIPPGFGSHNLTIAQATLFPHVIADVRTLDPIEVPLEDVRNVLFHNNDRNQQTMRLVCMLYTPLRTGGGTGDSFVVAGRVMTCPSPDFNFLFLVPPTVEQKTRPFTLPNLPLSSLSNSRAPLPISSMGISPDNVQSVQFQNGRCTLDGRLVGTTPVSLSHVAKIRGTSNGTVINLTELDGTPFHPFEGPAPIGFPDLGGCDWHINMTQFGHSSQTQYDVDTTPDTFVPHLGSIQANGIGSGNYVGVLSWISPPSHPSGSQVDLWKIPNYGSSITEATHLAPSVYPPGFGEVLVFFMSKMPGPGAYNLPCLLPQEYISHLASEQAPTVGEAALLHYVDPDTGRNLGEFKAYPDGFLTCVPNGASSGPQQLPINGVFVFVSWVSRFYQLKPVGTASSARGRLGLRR", "T2 VP2": "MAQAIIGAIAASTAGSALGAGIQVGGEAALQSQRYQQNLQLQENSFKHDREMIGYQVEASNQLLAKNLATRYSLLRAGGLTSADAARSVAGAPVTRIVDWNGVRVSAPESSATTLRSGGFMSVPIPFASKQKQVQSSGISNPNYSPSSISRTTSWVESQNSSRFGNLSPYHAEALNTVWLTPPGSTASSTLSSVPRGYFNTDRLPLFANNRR", "assay": "ELISA"}, "GII.4 Protruding": {"biological_target": "GII.4 Protruding", "assay": "ELISA"}, "GII.4 Houston 2002 VLP [4]": {"biological_target": "T3, GII.4 Houston 2002 VLP (UniProt P54635 1-539)", "assay": "VLP blockade"}, "GII.4": {"biological_target": "GII.4 (UniProt P54635 1-538)", "assay": "VLP-PGM blockade"}, "GII.6 [5]": {"biological_target": "GII.6 (norovirus GII.6)", "assay": "VLP-PGM blockade"}, "GII.6 [6]": {"biological_target": "GII.6 (norovirus GII.6)", "assay": "ELISA"}, "Shell domain": {"biological_target": "T4, Shell domain (UniProt P54635 1-221)", "T4 chain": "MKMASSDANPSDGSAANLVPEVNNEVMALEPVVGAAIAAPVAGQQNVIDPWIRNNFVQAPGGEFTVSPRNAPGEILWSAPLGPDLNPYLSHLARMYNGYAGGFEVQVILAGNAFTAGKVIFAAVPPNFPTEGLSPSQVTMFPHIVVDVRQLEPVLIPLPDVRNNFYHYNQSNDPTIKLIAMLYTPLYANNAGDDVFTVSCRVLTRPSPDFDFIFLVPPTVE", "assay": "ELISA"}, "Protruding domain": {"biological_target": "Protruding domain", "assay": "ELISA"}, "GII.4 Houston 2002 VLP [7]": {"biological_target": "T3, GII.4 Houston 2002 VLP", "assay": "ELISA binding"}}}
{"binder": "168.2 (antibody, V domains shown) VH: QVQLVESGGGVVQPGRSLRLSCAASGFTFSSYAMHWVRQAPGKGLEWVAVISYDGSNKYYADSVKGRFTISRDNSKNTLYLQMNSLRAEDTAVYYCARSVIGYYYYGMDVWGQGTLVTVSS VL: QPVLTQPPSASASLGASVTLTCTLSSGYSNYKVDWYQQRPGKGPRFVMRVGTGGIVGSKGDGIPDRFSVLGSGLNRYLTIKNIQEEDESDYHCGADHGSGILFGGGTKLTVL", "values": [{"measurement": "EC50", "setting": "GII.17 Shell", "result": 183, "unit": "nM"}, {"measurement": "EC50", "setting": "GII.6 Shell", "result": 162, "unit": "nM"}, {"measurement": "EC50", "setting": "GII.17 Protruding", "result": 390, "unit": "nM"}, {"measurement": "EC50", "setting": "GII.6 Protruding", "result": 135, "unit": "nM"}, {"measurement": "EC50", "setting": "GI.3 Shell", "result": 37, "unit": "nM"}, {"measurement": "EC50", "setting": "GI.3 Protruding", "result": 143, "unit": "nM"}, {"measurement": "EC50", "setting": "GII.17", "result": 153, "unit": "nM"}, {"measurement": "EC50", "setting": "GII.3", "result": 224, "unit": "nM"}, {"measurement": "EC50", "setting": "GII.13", "result": 107, "unit": "nM"}, {"measurement": "EC50", "setting": "GI.3", "result": 8, "unit": "nM"}]}
{"binder": "NORO-168.2 (antibody, V domains shown) VH: QVQLVESGGGVVQPGRSLRLSCAASGFTFSSYAMHWVRQAPGKGLEWVAVISYDGSNKYYADSVKGRFTISRDNSKNTLYLQMNSLRAEDTAVYYCARSVIGYYYYGMDVWGQGTLVTVSS VL: QPVLTQPPSASASLGASVTLTCTLSSGYSNYKVDWYQQRPGKGPRFVMRVGTGGIVGSKGDGIPDRFSVLGSGLNRYLTIKNIQEEDESDYHCGADHGSGILFGGGTKLTVL", "values": [{"measurement": "EC50", "setting": "GII.6 (AF414410) VLPs [1]", "result": 198, "unit": "nM"}, {"measurement": "EC50", "setting": "GI.2 (AF435807) VLPs", "result": 265, "unit": "nM"}, {"measurement": "EC50", "setting": "[2]", "result": 78, "unit": "nM"}, {"measurement": "EC50", "setting": "GII.6 (AF414410) VLPs [3]", "result": 7, "unit": "nM"}]}
{"binder": "NORO-156.3 (antibody, V domains shown) VH: QVQLQQWGAGLLKPSETLSLTCAVYGGSFSGYYWSWIRQPPGKGLEWIGEINHSGSTNYNPSLKSRVTISVDTSKNQFSLKLSSVTAADTAVYYCARGLMDVWGQGTLVTVSS VL: AIRMTQSPSSFSASTGDRVTITCRASQGISSYLAWYQQKPGKAPKLLIYAASTLQSGVPSRFSGSGSGTDFTLTISCLQSEDFATYYCQQYYSYPRTFGQGTKLEIK", "values": [{"measurement": "EC50", "setting": "GI.1 (M87661) VLPs", "result": 42, "unit": "nM"}, {"measurement": "EC50", "setting": "GII.6 (AF414410) VLPs [1]", "result": 39, "unit": "nM"}, {"measurement": "EC50", "setting": "GI.2 (AF435807) VLPs", "result": 175, "unit": "nM"}, {"measurement": "EC50", "setting": "GII.6 (AF414410) VLPs [3]", "result": 355, "unit": "nM"}]}
{"binder": "232A.2 (antibody, V domains shown) VH: QVQLKQWGAGLLKSSETLSLTCAFNGNSFGAFYWSWIRLSPGKGLEWIGEVNYLGGADYNPSLKSRVTMSADTSKRQFSLSLKSVTAADTGVYFCARGRPHDYSPGSYSRPRRYYGLDVWGQGTTVTVSS VL: EIVLTQSPATLSLSPGDSATLSCRASQAVSTTYLAWYQQTRGQAPRLLIHGTYTRAIGIPDKFSGTGSGTDFTLTISGLAPEDFAVYYCQQYSSSPYTFGQGTKIEIT", "values": [{"measurement": "EC50", "setting": "GII.4 Protruding", "result": 3, "unit": "nM"}, {"measurement": "EC50", "setting": "GII.17 Protruding", "result": 2, "unit": "nM"}, {"measurement": "EC50", "setting": "GII.6 Protruding", "result": 2, "unit": "nM"}, {"measurement": "EC50", "setting": "GII.4 Houston 2002 VLP [4]", "result": 5.4, "unit": "µg/mL"}, {"measurement": "EC50", "setting": "GII.4", "result": 115, "unit": "nM"}, {"measurement": "EC50", "setting": "GII.6 [5]", "result": 20, "unit": "nM"}, {"measurement": "EC50", "setting": "GII.3", "result": 1, "unit": "nM"}, {"measurement": "EC50", "setting": "GII.13", "result": 2, "unit": "nM"}, {"measurement": "EC50", "setting": "GII.6 [6]", "result": 1, "unit": "nM"}, {"measurement": "EC50", "setting": "Shell domain", "result": 38.1, "unit": "µg/mL"}, {"measurement": "EC50", "setting": "Protruding domain", "result": 0.4, "unit": "µg/mL"}, {"measurement": "EC50", "setting": "GII.4 Houston 2002 VLP [7]", "result": 0.2, "unit": "µg/mL"}]}
